Target: T1, Mu-FXII N398K mutant with C-terminal 8xHis-tag (mouse, UniProt Q80YC5 20-597)
T1 construct: Mouse to rat residue change; culture supernatant; also called mutant c) N398K
T1 sequence: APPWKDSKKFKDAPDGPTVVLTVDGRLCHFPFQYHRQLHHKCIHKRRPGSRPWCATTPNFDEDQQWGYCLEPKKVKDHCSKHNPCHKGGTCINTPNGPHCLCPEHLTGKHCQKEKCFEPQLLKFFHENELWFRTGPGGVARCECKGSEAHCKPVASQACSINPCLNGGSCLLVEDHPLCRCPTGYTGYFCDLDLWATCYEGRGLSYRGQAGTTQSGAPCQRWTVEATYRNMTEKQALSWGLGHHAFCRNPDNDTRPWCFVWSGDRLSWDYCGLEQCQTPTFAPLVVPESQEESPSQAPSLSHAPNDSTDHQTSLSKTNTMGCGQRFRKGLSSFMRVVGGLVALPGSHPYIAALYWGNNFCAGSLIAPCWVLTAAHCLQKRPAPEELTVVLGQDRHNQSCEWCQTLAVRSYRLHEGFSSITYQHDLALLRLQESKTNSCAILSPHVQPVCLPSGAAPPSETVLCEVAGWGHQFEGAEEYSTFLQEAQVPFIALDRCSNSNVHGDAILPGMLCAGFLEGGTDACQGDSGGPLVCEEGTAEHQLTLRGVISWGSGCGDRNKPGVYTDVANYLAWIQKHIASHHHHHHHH
Assay: Western blot, non-reducing, 3F7 mAb detected with anti-human IgG-FITC
Protocol: Proteins were then transferred electrophoretically onto nitrocellulose filters and blocked for 1 hour in 5% Milk powder in Tris-buffered saline with 0.05% Tween-20 (TTBS). Filters were then incubated for 1 hour with either 3F7 mAb or an anti-His mAb 3H3 (both at […] in TTBS with 5% Milk powder), washed thoroughly with TTBS, then incubated for a further hour with anti-human IgG-FITC or anti-mouse IgG-FITC, respectively (Millipore, USA; both at 0.25 mg/ml in TTBS with 5% Milk powder). Following further washing of membranes in TTBS, Ab-FITC bound proteins were visualized using a Typhoon variable mode analyzer (GE Healthcare, USA).

B1: monoclonal antibody 3F7 (fully human IgG4/lambda) (antibody, V domains shown)
VH: EVQLLESGGGLVQPGGSLRLSCAASGFTFSKYIMQWVRQAPGKGLEWVSGIRPSGGTTVYADSVKGRFTISRDNSKNTLYLQMNSLRAEDTAVYYCARALPRSGYLISPHYYYYALDVWGQGTTVTVSS
VL: QSELTQPPSASGTPGQRVTISCSGSSSNIGRNYVYWYQQVPGTAPKLLIYSNNQRPSGVPDRFSGSKSGTSASLVISGLRSEDEADYYCAAWDASLRGVFGGGTKLTVLG
notes: also called 3F7 mAb; MAb 3F7
B1: no binding.

Source: patent publication US20200062863A1 (CSL BEHRING, published 2020)
